Patent US20050106100A1, “Compounds containing matrix metalloproteinase substrates and methods of their use” (priority 2003, published 2005)

Assays:
Format in all cases: biochemical
[1] = substrate: CC(=O)N1CCC[C@H]1C(=O)N[C@@H](CCCN)C(=O)NCC(=O)N[C@@H](CCc1ccccc1)C(=O)N[C@@H](CC(C)C)C(=O)NNC(=O)c1ccc(N/N=C/c2ccccc2S(=O)(=O)O)nc1; test: Kinetic measurements of substrate hydrolysis by active MMP-2 (radio HPLC assay); settings: other: active MMP-2 final concentration 10 nM, 37° C., 60 minutes, radiolabeled test substrate, pH 7.5
Description: (§2) Purified MMP-2 (10 μg) or MMP-9 (10 μg) were reconstituted in 100 μL of TCN buffer. […] Pro-MMP-2 was activated by incubation with 2 nM APMA for 2 hours at 37° C. At the end of incubation 100 μl of 100% glycerol was added to active MMP-2 and active MMP-9 (final concentration 50% glycerol). Active MMP-2 and active MMP-9 were aliquoted and stored at −20° C.
(§3) The level of active protease was always quantified by active site titration studies prior to kinetic studies. The active site of MMP-9 and MMP-2 was titrated using the GM6001 dissolved in 100% DMSO at a stock concentration of 2.5 mM. Dilutions (1:2) of GM6001 were prepared in TCN buffer to give a final concentration of 5 nM to 0.04 nM GM6001 in the active site titration assay. Activated MMP-2 or activated MMP-9 (2 nM) was preincubated with increasing concentrations of GM60001 at 37° C. for 15 minutes in 96 well black microtiter plates. […] Plates were read on fluorescence spectrophotometer at excitation wavelength of 320 nm and emission wavelength of 395 nm. The concentration of the active enzyme was determined using the Morrison equation and Kaleidagraph software (Reading, Pa.).
(§4) The kinetic parameters of substrate hydrolysis were determined using a radio HPLC assay. The turnover of different substrates by active MMP-2 and active MMP-9 was determined using this assay. […] The radiolabel was detected by a IN/US beta ram detector. […]

[2] = substrate: CC(=O)N1CCC[C@H]1C(=O)N[C@@H](CC(C)C)C(=O)NCC(=O)N[C@@H](CCc1ccccc1)C(=O)N[C@@H](Cc1ccc(O)cc1)C(=O)N[C@@H](CC(C)C)C(=O)NNC(=O)c1ccc(N/N=C/c2ccccc2S(=O)(=O)ON)nc1; test: as above; settings: other: active MMP-2 final concentration 10 nM, 37° C., 60 minutes, radiolabeled test substrate, pH 7.5
Description: as §2, §3, §4

[3] = substrate: CC(=O)N1CCC[C@H]1C(=O)N[C@@H](CCCN)C(=O)NCC(=O)N[C@@H](CCc1ccccc1)C(=O)N[C@@H](CC(C)C)C(=O)NNC(=O)c1ccc(N/N=C/c2ccccc2S(=O)(=O)O)nc1; test: Substrate hydrolysis assay with mouse MMP9; settings: other: mouse MMP9; pH 7.5
Description: (§1) The kinetic parameters of substrate hydrolysis were determined using a radio HPLC assay. The turnover of different substrates by active MMP-2 and active MMP-9 was determined using this assay. A stock solution of different test substrates (10 mM) was prepared in 100% DMSO. Stock solutions of the test substrates were diluted 1000 fold (10 nM) in buffer (50 mM Hepes/pH 7.5, 10 mM CaCl2, 0.1% Brij) to give working stock solution. Working stock solution of the test substrate (15 μl) was added to buffer (120 μL) in a test tube and warmed at 37° C. for 2 minutes. To this solution 15 μL of working stock of active MMP-2 (final concentration 10 nM) or active MMP-9 was added (final concentration 2 nM). Finally, 4 μCi of radiolabeled test substrate was added and the solution was mixed and immediately 67.5 µL of the mix was transferred to HPLC vials containing 7.5 μl of 0.5M EDTA for t=0 minute measurement. The rest of the mix in the test tube was incubated at 37° C. for 60 minutes. At the 60 minute time point 67.5 μl of the mix was transferred to the HPLC vial containing 7.5 μL of 0.5 M EDTA for t=60 minute measurement. […] Mobile phase A (MPA) was 25 mM ammonium acetate and mobile phase B (MPB) was 100% acetonitrile. […] The radiolabel was detected by a IN/US beta ram detector. […]

[4] = substrate: CC(=O)N1CCC[C@H]1C(=O)N[C@@H](CC(C)C)C(=O)NCC(=O)N[C@@H](CCc1ccccc1)C(=O)N[C@@H](Cc1ccc(O)cc1)C(=O)N[C@@H](CC(C)C)C(=O)NNC(=O)c1ccc(N/N=C/c2ccccc2S(=O)(=O)ON)nc1; test: Substrate hydrolysis assay with mouse MMP9; settings: other: mouse MMP9; pH 7.5
Description: as §1

B1: MMP-2 (Homo sapiens) (protein)
chain: YNFFPRKPKWDKNQITYRIIGYTPDLDPETVDDAFARAFQVWSDVTPLRFSRIHDGEADIMINFGRWEHGDGYPFDGKDGLLAHAFAPGTGVGGDSHFDDDELWTLGEGQVVRVKYGNADGEYCKFPFLFNGKEYNSCTDTGRSDGFLWCSTTYNFEKDGKYGFCPHEALFTMGGNAEGQPCKFPFRFQGTSYDSCTTEGRTDGYRWCGTTEDYDRDKKYGFCPETAMSTVGGNSEGAPCVFPFTFLGNKYESCTSAGRSDGKMWCATTANYDDDRKWGFCPDQGYSLFLVAAHEFGHAMGLEHSQDPGALMAPIYTYTKNFRLSQDDIKGIQELYGASPDIDLGTGPTPTLGPVTPEICKQDIVFDGIAQIRGEIFFFKDRFIWRTVTPRDKPMGPLLVATFWPELPEKIDAVYEAPQEEKAVFFAGNEYWIYSASTLERGYPKPLTSLGLPPDVQRVDAAFNWSKNKKTYIFAGDKFWRYNEVKKKMDPGFPKLIADAWNAIPDNLDAVVDLQGGGHSYFFKGAYYLKLENQSLKSVKFGSIKSDWLGC
In the case of B1, the kcat/Km [1] is reported as 63700 M⁻¹ s⁻¹ and the kcat/Km [2] is reported as 63200 M⁻¹ s⁻¹.

B2: mouse MMP9 (Mus musculus) (protein)
chain: FQTFKGLKWDHHNITYWIQNYSEDLPRDMIDDAFARAFAVWGEVAPLTFTRVYGPEADIVIQFGVAEHGDGYPFDGKDGLLAHAFPPGAGVQGDAHFDDDELWSLGKGVVIPTYYGNSNGAPCHFPFTFEGRSYSACTTDGRNDGTPWCSTTADYDKDGKFGFCPSERLYTEHGNGEGKPCVFPFIFEGRSYSACTTKGRSDGYRWCATTANYDQDKLYGFCPTRVDATVVGGNSAGELCVFPFVFLGKQYSSCTSDGRRDGRLWCATTSNFDTDKKWGFCPDQGYSLFLVAAHEFGHALGLDHSSVPEALMYPLYSYLEGFPLNKDDIDGIQYLYGRGSKPDPRPPATTTTEPQPTAPPTMCPTIPPTAYPTVGPTVGPTGAPSPGPTSSPSPGPTGAPSPGPTAPPTAGSSEASTESLSPADNPCNVDVFDAIAEIQGALHFFKDGWYWKFLNHRGSPLQGPFLTARTWPALPATLDSAFEDPQTKRVFFFSGRQMWVYTGKTVLGPRSLDKLGLGPEVTHVSGLLPRRLGKALLFSKGRVWRFDLKSQKVDPQSVIRVDKEFSGVPWNSHDIFQYQDKAYFCHGKFFWRVSFQNEVNKVDHEVNQVDDVGYVTYDLLQCP
notes: The turnover of different substrates by active MMP-2 and active MMP-9 was determined using this assay
Work on B2 yielded a kcat/Km [3] of 897 M⁻¹ s⁻¹ and a kcat/Km [4] of over 100000 M⁻¹ s⁻¹.
